One may read the IC50 as the midpoint of a concentration-inhibition curve. Usually Kd stands for a measure of binding affinity in units of concentration.

Among the data in the Immune Epitope Database (IEDB) are IC50 and Kd values, retold here.

The target of assay [1] is HLA-B*15:01. The experiment in a line: IEDB peptide-MHC binding, purified MHC/competitive/fluorescence; ≥ and ≤ were set here for values at or beyond the usual limits of such assays.
Assay [2] deals with HLA-B*51:01. Description: IEDB peptide-MHC binding, purified MHC/direct/fluorescence; filed as Kd, often an IC50 or EC50 that approximates it; ≥ and ≤ were set here for values at or beyond the usual limits of such assays.
Assay [3] concerns the target HLA-B*15:01. Described as above. The note with it: source organism: Yersinia pestis CA88-4125.
For assay [4], the target named is HLA-B*07:02. The assay is described as above.
For assay [5], the target named is HLA-B*57:01. Description: IEDB peptide-MHC binding, purified MHC/competitive/radioactivity; filed as Kd, often an IC50 or EC50 that approximates it; ≥ and ≤ were set here for values at or beyond the usual limits of such assays.
Assay [6] deals with HLA-A*32:01. The assay is described as above. The note with it: source organism: Dengue virus 1 Brazil/97-11/1997.
For assay [7], the target named is HLA-B*58:01. The description is as above.
The target in assay [8] is HLA-B*53:01. Described as above.
The target of assay [9] is HLA-A*24:03. Description: IEDB peptide-MHC binding, purified MHC/competitive/fluorescence; filed as Kd, often an IC50 or EC50 that approximates it; ≥ and ≤ were set here for values at or beyond the usual limits of such assays.
Assay [10] has as its target HLA-A*02:01. Description: IEDB peptide-MHC binding, purified MHC/competitive/fluorescence; ≥ and ≤ were set here for values at or beyond the usual limits of such assays.
The target in assay [11] is HLA-B*07:02. The description is as above.
In assay [12] the target is HLA-A*24:02. The assay is described as above.
Assay [13] addresses HLA-A*01:01. Description: IEDB peptide-MHC binding, purified MHC/direct/fluorescence; filed as Kd, often an IC50 or EC50 that approximates it; ≥ and ≤ were set here for values at or beyond the usual limits of such assays.
In assay [14] the target is HLA-B*08:01. Described as above. The note with it: source organism: Mammarenavirus juninense.
The target in assay [15] is HLA-B*57:01. The assay is described as above. The note with it: source organism: Mammarenavirus juninense.
Assay [16] has as its target HLA-B*46:01. The assay is described as above. The note with it: source organism: Mammarenavirus juninense.
Assay [17] addresses HLA-B*27:05. The assay is described as above. The note with it: source organism: Mammarenavirus juninense.
Assay [18] has as its target HLA-A*02:01. The assay is described as above. The note with it: source organism: Mammarenavirus juninense.
The target in assay [19] is HLA-A*03:01. The description is as above. The note with it: source organism: Mammarenavirus juninense.
Assay [20] has as its target HLA-A*69:01. The assay is described as above.
The target of assay [21] is HLA-A*31:01. The assay is described as above. The note with it: source organism: Mammarenavirus juninense.
The target in assay [22] is HLA-B*18:01. The description is as above.
Assay [23] deals with HLA-B*58:01. Described as above. The note with it: source organism: Mammarenavirus juninense.
The target in assay [24] is HLA-B*48:01. Described as above. The note with it: source organism: Mammarenavirus juninense.
Assay [25] addresses HLA-A*29:02. Described as above.
In assay [26] the target is HLA-A*11:01. Described as above. The note with it: source organism: Mammarenavirus juninense.
Assay [27] deals with HLA-B*40:01. Described as above.
Assay [28] addresses HLA-B*44:02. The description is as above. The note with it: source organism: Mammarenavirus juninense.
In assay [29] the target is HLA-A*11:01. Description: IEDB peptide-MHC binding, purified MHC/competitive/radioactivity; filed as Kd, often an IC50 or EC50 that approximates it; ≥ and ≤ were set here for values at or beyond the usual limits of such assays. The note with it: source organism: Dengue virus 3 Martinique/1243/1999.
The target of assay [30] is HLA-A*01:01. The assay is described as above. The note with it: source organism: Dengue virus 3 Sri Lanka/1266/2000.
The target of assay [31] is HLA-A*11:01. Description: IEDB peptide-MHC binding, purified MHC/competitive/fluorescence; ≥ and ≤ were set here for values at or beyond the usual limits of such assays. The note with it: source organism: Sudan ebolavirus.
Assay [32] addresses HLA-A*02:03. The experiment in a line: IEDB peptide-MHC binding, purified MHC/direct/fluorescence; filed as Kd, often an IC50 or EC50 that approximates it; ≥ and ≤ were set here for values at or beyond the usual limits of such assays. The note with it: source organism: Mycobacterium tuberculosis str. Haarlem.
Assay [33] concerns the target HLA-B*15:42. The experiment in a line: IEDB peptide-MHC binding, purified MHC/competitive/fluorescence; filed as Kd, often an IC50 or EC50 that approximates it; ≥ and ≤ were set here for values at or beyond the usual limits of such assays. The note with it: source organism: Orthohantavirus puumalaense.
The target in assay [34] is HLA-B*45:06. The description is as above. The note with it: source organism: Orthohantavirus puumalaense.
In assay [35] the target is HLA-B*83:01. The description is as above. The note with it: source organism: Orthohantavirus puumalaense.
The target of assay [36] is HLA-A*30:01. Description: IEDB peptide-MHC binding, purified MHC/competitive/radioactivity; filed as Kd, often an IC50 or EC50 that approximates it; ≥ and ≤ were set here for values at or beyond the usual limits of such assays. The note with it: source organism: Dengue virus 2 Jamaica/1409/1983.
Where [37] appears, read: source organism: Zaire ebolavirus.
The mark [38] stands for this setting: source organism: Yersinia pestis.
Setting [39] is: source organism: Dengue virus 1 Brazil/97-11/1997.
Setting [40] is: source organism: Vaccinia virus.
[41] abbreviates: source organism: Dengue virus 3 Martinique/1243/1999.
The mark [42] stands for this setting: source organism: Sudan ebolavirus.
[43] abbreviates: source organism: Dengue virus 2 Jamaica/1409/1983.
[44] abbreviates: source organism: Orthohantavirus hantanense.
Setting [45] is: source organism: Dengue virus 1 Singapore/S275/1990.
The mark [46] stands for this setting: source organism: Dengue virus 4 Philippines/H241/1956.
Where [47] appears, read: source organism: Mammarenavirus juninense.
Setting [48] is: source organism: Mycobacterium tuberculosis.
The mark [49] stands for this setting: source organism: Mycobacterium tuberculosis str. Haarlem.

GQSPARTSS showed an IC50 in assay [1] (setting [37]) of 26 µM.
In the case of WANDFNHHY, the Kd in assay [2] (setting [38]) was ≥ 20 µM; in assay [3], 0.029 µM; in assay [4] (setting [38]), ≥ 20 µM.
Consider TTLSLDYAW, for which the Kd in [5] (setting [39]) was 0.000617 µM; in assay [6], 0.114 µM; in [7] (setting [39]), 0.00166 µM; in assay [8] (setting [39]), 0.0709 µM.
As for FWPQHFGLI, in assay [9] (source organism: Escherichia coli F11), the Kd is 0.0004 µM.
With ILRSLETDL, the values for the IC50 in assay [10] (setting [40]) and in assay [1] (setting [40]) were 22 µM and 58.9 µM, respectively.
Consider RVWIEENPW, for which the Kd was found to be 0.0027 µM in assay [5] (setting [39]) and 0.058 µM in [6].
Regarding NYPVAKGSY, the dissociation constant Kd in assay [9] (source organism: Influenza A virus (A/Kayano/57(H2N2))) was ≥ 20 µM.
With QASTTEAILP, the Kd in assay [5] (setting [41]) was determined as 1.96 µM; in [7] (setting [41]) it was 1.52 µM.
For the sequence LPNPAFIHI, in assay [11] (source organism: Variola virus), the IC50 came to 11 µM.
LPRDKFRKS gave an IC50 in [11] (setting [42]) of 16.9 µM.
As to RSVSGDLIL, the Kd in assay [7] (setting [39]) came to 0.00984 µM.
Regarding AASIILEFFL, the figures for the Kd in assay [5] (setting [43]) and in assay [7] (setting [43]) were 2.27 µM and 0.366 µM, respectively.
As for AVRTDGSNI, the Kd is ≥ 20 µM in assay [2] (setting [44]) and 0.261 µM in assay [4] (setting [44]).
With AAEAMEVA, in assay [11] (source organism: H1N1 subtype Influenza A/Oklahoma/7485/01), the IC50 was ≥ 1000 µM.
Take GASHNILVEV: the Kd in assay [5] (setting [45]) was determined as 0.785 µM; in assay [7] (setting [45]), 9.64 µM.
For IGIGVLLTW, the Kd was found to be 0.192 µM in assay [5] (setting [41]), 0.0116 µM in assay [7] (setting [41]) and 1.14 µM in [8] (setting [41]).
As for IGLAWIPYF, the figures for the IC50 in [10] (setting [37]) and in [1] (setting [37]) were 5.68 µM and ≥ 153 µM, respectively.
Regarding IRGFPRCRY, the figures for the IC50 in assay [1] (setting [37]) and in [12] (setting [37]) were ≥ 242 µM and 66 µM, respectively.
For IASLVMLLVH, the Kd in [5] (setting [46]) is 0.435 µM; in assay [7] (setting [46]) it was 1.73 µM.
For the sequence QVKRREGMF, the Kd in assay [13] (setting [47]) is ≥ 20 µM; in assay [14], 1.55 µM; in assay [15] it was ≥ 20 µM; in assay [16] it was ≥ 20 µM; in assay [17], ≥ 20 µM; in assay [18], ≥ 20 µM. For the same sequence, the Kd in [19], in assay [20] (setting [47]), in assay [21], in [22] (setting [47]), in assay [4] (setting [47]) and in [23] was ≥ 20 µM throughout. Moreover, the Kd in [24], in assay [25] (setting [47]), in [26], in assay [27] (setting [47]) and in assay [28] was ≥ 20 µM each time.
For ASSMINGVVK, the Kd was determined as 15.7 µM in assay [5] (setting [41]), 1.3 µM in assay [7] (setting [41]) and 0.0392 µM in [29].
In turn, LRKRSRRQT showed an IC50 in [11] (setting [42]) of 18.8 µM.
For the sequence VSSVNMVSRL, the dissociation constant Kd is 10.7 µM in assay [30] and 1.03 µM in [5] (source organism: Dengue virus 3 Sri Lanka/1266/2000).
Regarding HTPQFLFQL, the IC50 in assay [10] (setting [42]) was 2.73 µM; in assay [11] (setting [42]) it was ≥ 78.8 µM; in [31], ≥ 166 µM; in assay [12] (setting [42]) it was 1.11 µM.
As for GGWRLSAQW, the Kd in assay [5] (setting [41]) was determined as 0.179 µM.
Turning to ALLENIHRV, the Kd in [32] stood at 0.002 µM; in assay [20] (setting [48]) it was 0.0473 µM.
For the sequence GPHRTIHHA, in assay [11] (setting [37]), the IC50 stood at 5.75 µM.
As for SAHSADGHY, the Kd was ≥ 20 µM in assay [13] (setting [48]) and 0.02 µM in [25] (setting [49]).
On to GTSETFSMGL, for which the Kd in assay [5] (setting [46]) was 13.5 µM.
Consider QTYMYTGQY, for which the Kd in assay [13] (setting [48]) was determined as 0.512 µM; in assay [25] (setting [49]) it was 0.017 µM.
As to AELGAFFSI, the Kd is 0.0408 µM in assay [22] (source organism: Amur virus); ≤ 0.001 µM in assay [27] (source organism: Amur virus); ≥ 5 µM in [33]; ≥ 5 µM in assay [34]; ≥ 5 µM in [35].
For KARSTPFNM, the Kd amounted to 0.194 µM in assay [7] (setting [43]) and 0.169 µM in assay [36].
Turning to ISSTPLAENT, the Kd in assay [7] (source organism: Dengue virus 4 Dominica/814669/1981) came out at 0.951 µM.
For the sequence IQVHAEQGL, the IC50 in assay [10] (setting [37]) was ≥ 105 µM; in [1] (setting [37]), 33 µM.
